Common to all, as to assay: Kinase panel residual activity
Common to all, as to assay type: biochemical
Holding throughout (settings): compound at 1 micromolar

Data set [1] concerns the target T1, TSSK1 (Homo sapiens, UniProt Q9BXA7).
T1 sequence (Q9BXA7 1-367): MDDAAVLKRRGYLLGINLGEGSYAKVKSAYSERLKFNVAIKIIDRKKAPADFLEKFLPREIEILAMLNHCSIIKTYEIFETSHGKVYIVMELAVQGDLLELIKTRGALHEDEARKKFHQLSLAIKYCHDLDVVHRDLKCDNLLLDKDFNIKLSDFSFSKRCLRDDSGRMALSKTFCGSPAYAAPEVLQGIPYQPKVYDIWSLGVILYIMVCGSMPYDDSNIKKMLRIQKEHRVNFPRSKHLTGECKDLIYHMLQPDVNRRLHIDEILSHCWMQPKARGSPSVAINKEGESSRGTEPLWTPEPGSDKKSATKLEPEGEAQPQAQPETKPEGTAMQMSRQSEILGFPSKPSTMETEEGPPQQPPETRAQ

In data set [2] the target is T2, EPH-B4 (Homo sapiens, UniProt P54760).
T2 sequence (P54760 16-987): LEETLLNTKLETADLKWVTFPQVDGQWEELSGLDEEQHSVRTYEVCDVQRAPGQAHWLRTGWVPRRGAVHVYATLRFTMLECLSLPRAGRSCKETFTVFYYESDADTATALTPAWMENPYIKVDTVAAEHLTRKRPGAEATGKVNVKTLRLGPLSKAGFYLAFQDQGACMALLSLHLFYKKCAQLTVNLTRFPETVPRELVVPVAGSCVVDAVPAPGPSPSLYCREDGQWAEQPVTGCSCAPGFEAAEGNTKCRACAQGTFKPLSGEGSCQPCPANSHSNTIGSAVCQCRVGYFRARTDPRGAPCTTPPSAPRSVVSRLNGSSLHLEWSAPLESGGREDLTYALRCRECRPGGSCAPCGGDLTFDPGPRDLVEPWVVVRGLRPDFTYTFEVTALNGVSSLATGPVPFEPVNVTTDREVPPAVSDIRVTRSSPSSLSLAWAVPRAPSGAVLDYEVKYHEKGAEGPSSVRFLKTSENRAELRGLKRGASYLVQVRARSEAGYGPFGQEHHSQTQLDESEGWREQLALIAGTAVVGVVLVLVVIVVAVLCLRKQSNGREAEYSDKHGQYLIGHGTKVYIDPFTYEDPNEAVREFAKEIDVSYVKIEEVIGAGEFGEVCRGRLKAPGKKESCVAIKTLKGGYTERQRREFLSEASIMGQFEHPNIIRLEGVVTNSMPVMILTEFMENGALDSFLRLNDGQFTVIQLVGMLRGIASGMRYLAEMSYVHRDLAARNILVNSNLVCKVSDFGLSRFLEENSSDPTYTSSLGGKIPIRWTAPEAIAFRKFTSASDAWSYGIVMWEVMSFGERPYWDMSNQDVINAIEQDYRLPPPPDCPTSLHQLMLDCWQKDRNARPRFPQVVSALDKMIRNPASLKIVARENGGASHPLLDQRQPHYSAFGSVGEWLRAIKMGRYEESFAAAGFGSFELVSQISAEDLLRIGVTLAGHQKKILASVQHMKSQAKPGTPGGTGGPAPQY

For data set [3], the target named is Src (Homo sapiens, UniProt P12931).
The target of data set [4] is T3, GCK (Homo sapiens, UniProt Q12851).
T3 sequence (Q12851 1-820): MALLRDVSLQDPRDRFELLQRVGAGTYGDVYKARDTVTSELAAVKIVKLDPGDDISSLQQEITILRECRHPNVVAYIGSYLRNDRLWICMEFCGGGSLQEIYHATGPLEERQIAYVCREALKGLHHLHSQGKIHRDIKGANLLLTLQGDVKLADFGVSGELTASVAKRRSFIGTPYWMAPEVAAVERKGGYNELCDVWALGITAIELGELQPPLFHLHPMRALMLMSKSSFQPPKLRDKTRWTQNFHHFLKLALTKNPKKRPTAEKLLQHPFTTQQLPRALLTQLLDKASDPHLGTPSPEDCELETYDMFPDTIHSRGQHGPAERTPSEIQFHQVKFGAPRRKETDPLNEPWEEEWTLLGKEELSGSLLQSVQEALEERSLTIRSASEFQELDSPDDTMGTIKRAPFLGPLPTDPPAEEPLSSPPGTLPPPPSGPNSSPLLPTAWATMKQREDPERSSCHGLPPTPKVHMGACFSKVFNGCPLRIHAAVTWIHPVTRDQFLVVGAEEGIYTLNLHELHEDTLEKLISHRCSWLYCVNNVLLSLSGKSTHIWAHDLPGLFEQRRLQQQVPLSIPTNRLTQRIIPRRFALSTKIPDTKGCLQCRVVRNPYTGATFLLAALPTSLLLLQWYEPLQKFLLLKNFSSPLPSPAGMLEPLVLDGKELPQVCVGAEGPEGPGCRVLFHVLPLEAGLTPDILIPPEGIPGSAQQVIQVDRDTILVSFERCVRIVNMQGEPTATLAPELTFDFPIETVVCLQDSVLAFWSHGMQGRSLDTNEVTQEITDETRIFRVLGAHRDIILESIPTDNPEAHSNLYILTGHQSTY

The target of data set [5] is JAK2 (Homo sapiens, UniProt O60674).
The target in data set [6] is PIM2 (Homo sapiens, UniProt Q9P1W9).

Where a SMILES comes first, the peptide text is derived from it. [ ]: non-standard residue; d: D form. The star is where a group is joined. X1 = O=C(CCCCCCCn1cnc2c(Br)c(Br)c(Br)c(Br)c21)*

As usually defined, the remaining activity is the signal under treatment as a percentage of the control signal.

Chain of JAK2 (O60674 whole entry, species assumed): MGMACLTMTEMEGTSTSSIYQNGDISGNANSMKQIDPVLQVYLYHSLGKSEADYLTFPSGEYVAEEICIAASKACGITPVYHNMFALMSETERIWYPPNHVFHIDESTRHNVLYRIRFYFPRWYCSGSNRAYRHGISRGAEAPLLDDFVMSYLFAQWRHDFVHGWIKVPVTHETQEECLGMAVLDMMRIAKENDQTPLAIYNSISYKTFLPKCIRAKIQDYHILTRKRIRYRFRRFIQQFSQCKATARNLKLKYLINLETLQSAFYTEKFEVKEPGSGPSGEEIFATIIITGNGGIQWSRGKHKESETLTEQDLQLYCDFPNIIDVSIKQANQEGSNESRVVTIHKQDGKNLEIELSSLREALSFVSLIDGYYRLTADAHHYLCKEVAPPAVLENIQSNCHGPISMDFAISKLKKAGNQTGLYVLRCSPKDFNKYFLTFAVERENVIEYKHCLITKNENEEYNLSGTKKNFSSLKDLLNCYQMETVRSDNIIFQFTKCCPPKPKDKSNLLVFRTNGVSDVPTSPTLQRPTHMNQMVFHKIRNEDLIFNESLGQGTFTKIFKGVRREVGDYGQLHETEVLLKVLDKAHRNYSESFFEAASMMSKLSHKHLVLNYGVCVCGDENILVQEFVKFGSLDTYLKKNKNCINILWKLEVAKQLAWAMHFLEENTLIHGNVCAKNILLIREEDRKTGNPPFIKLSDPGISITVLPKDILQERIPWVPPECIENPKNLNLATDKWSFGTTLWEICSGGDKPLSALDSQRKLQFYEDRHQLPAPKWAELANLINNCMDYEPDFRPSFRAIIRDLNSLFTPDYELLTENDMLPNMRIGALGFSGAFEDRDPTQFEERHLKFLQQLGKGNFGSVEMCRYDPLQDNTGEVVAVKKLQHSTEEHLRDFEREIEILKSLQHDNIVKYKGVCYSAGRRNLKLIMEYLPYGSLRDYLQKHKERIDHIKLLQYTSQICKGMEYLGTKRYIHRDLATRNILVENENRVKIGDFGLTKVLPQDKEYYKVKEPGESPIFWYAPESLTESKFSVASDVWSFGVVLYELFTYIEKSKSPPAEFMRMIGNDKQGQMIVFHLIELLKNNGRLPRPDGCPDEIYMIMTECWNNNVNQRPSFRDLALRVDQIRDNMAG
Chain of Src (P12931 whole entry, species assumed): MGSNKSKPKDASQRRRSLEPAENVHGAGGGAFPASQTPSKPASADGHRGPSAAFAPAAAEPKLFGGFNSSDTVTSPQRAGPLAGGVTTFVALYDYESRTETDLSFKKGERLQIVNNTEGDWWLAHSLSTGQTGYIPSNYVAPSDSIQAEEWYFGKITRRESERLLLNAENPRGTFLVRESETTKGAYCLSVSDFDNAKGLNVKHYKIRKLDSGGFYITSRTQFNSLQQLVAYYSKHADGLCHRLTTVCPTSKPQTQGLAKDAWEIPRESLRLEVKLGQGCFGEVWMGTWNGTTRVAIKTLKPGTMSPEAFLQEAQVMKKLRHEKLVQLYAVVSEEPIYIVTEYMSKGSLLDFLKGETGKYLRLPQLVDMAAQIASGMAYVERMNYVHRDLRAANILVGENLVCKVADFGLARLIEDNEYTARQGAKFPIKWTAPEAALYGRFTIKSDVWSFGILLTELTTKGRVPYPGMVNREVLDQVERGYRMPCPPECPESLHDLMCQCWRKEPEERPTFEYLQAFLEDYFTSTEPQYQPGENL
Chain of PIM2 (Q9P1W9 whole entry, species assumed): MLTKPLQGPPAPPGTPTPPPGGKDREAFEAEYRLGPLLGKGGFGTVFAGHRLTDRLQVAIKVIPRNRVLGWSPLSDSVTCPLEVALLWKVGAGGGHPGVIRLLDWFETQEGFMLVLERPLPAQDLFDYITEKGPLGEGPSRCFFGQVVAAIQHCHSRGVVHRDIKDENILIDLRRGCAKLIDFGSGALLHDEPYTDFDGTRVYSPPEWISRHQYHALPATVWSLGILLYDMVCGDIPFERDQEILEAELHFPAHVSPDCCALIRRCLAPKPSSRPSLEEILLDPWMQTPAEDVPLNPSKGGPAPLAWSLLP

For the compound `NCCCC[C@H](NC(=O)[C@H](CC(=O)O)NC(=O)[C@H](CC(=O)O)NC(=O)[C@H](CC(=O)O)NC(=O)[C@H](CC(=O)O)NC(=O)[C@H](CC(=O)O)NC(=O)[C@@H](CC(=O)O)NC(=O)CCCCCCCn1cnc2c(Br)c(Br)c(Br)c(Br)c21)C(=O)O` [TBBI-OcA-(D-Asp)-(L-Asp)5-(L-Lys)-OH] (X1-[dD]DDDDDK-OH), the remaining activity at 1 µM stood at 86% in data set [1]; 104% in data set [2]; 57% in data set [3]; 95% in data set [4]; 66% in data set [5]; 92% in data set [6].

(Values after US9176064B2, “Bisubstrate fluorescent probes for protein kinase CK2” (University of Tartu, priority 2012, dated 2015).)
